Experimental data published in patent publication US20190119358A1.
*1 amine or outer side, *2 acyl side, *3 side chain or, on linkers, in order; H or OH if unused. Bridges are numbered along the chain shown (N, C = ends). [ ]: non-standard residue; d: D form. The star is where a group is joined. Trp(7-aza) = N[C@@H](Cc1c[nH]c2ncccc12)C(=O)O; NMePhe(4-F) = CN[C@@H](Cc1ccc(F)cc1)C(=O)O; mXylylene = c1cc(C[*:1])cc(C[*:2])c1; dPhg = N[C@@H](C(=O)O)c1ccccc1; Phg = N[C@H](C(=O)O)c1ccccc1; Tle = CC(C)(C)[C@H](N)C(=O)O; NMeA = CN[C@@H](C)C(=O)O; Orn = NCCC[C@H](N)C(=O)O; Nva = CCC[C@H](N)C(=O)O; PEG2 = NCCOCCOCCC(=O)O; Acryloyl = C=CC(=O)*; Sar = CNCC(=O)O

B1: R4123 (peptide)
peptide: Ac-[Nva]CY[Tle]AK(Acryloyl)[NMeA][Phg][Trp(7-aza)]Y[NMePhe(4-F)][Sar]C-NH2
modifications: linker 2-13 via mXylylene
SMILES: C=CC(=O)NCCCC[C@@H]1NC(=O)[C@H](C)NC(=O)[C@H](C(C)(C)C)NC(=O)[C@H](Cc2ccc(O)cc2)NC(=O)[C@@H](NC(=O)[C@H](CCC)NC(C)=O)CSCc2cccc(c2)CSC[C@@H](C(N)=O)NC(=O)CN(C)C(=O)[C@H](Cc2ccc(F)cc2)N(C)C(=O)[C@H](Cc2ccc(O)cc2)NC(=O)[C@H](Cc2c[nH]c3ncccc23)NC(=O)[C@H](c2ccccc2)NC(=O)[C@H](C)N(C)C1=O
B2: R4122 (peptide)
peptide: Ac-[Nva]CY[Tle]A[Orn](Acryloyl)[NMeA][Phg][Trp(7-aza)]Y[NMePhe(4-F)][Sar]C-NH2
modifications: linker 2-13 via mXylylene
SMILES: C=CC(=O)NCCC[C@@H]1NC(=O)[C@H](C)NC(=O)[C@H](C(C)(C)C)NC(=O)[C@H](Cc2ccc(O)cc2)NC(=O)[C@@H](NC(=O)[C@H](CCC)NC(C)=O)CSCc2cccc(c2)CSC[C@@H](C(N)=O)NC(=O)CN(C)C(=O)[C@H](Cc2ccc(F)cc2)N(C)C(=O)[C@H](Cc2ccc(O)cc2)NC(=O)[C@H](Cc2c[nH]c3ncccc23)NC(=O)[C@H](c2ccccc2)NC(=O)[C@H](C)N(C)C1=O
B3: R4120 (peptide)
peptide: Ac-[Nva]CY[Tle]KH[NMeA][Phg][Trp(7-aza)]Y[NMePhe(4-F)][Sar]CGGGCAIL-NH2
modifications: linker 2-13 via mXylylene
SMILES: CCC[C@H](NC(C)=O)C(=O)N[C@H]1CSCc2cccc(c2)CSC[C@@H](C(=O)NCC(=O)NCC(=O)NCC(=O)N[C@@H](CS)C(=O)N[C@@H](C)C(=O)N[C@H](C(=O)N[C@@H](CC(C)C)C(N)=O)[C@@H](C)CC)NC(=O)CN(C)C(=O)[C@H](Cc2ccc(F)cc2)N(C)C(=O)[C@H](Cc2ccc(O)cc2)NC(=O)[C@H](Cc2c[nH]c3ncccc23)NC(=O)[C@H](c2ccccc2)NC(=O)[C@H](C)N(C)C(=O)[C@H](Cc2c[nH]cn2)NC(=O)[C@H](CCCCN)NC(=O)[C@H](C(C)(C)C)NC(=O)[C@H](Cc2ccc(O)cc2)NC1=O
B4: R4121 (peptide)
peptide: Ac-[Nva]CY[Tle]KH[NMeA][dPhg][Trp(7-aza)]Y[NMePhe(4-F)][NMeA]C-NH2
modifications: linker 2-13 via mXylylene
SMILES: CCC[C@H](NC(C)=O)C(=O)N[C@H]1CSCc2cccc(c2)CSC[C@@H](C(N)=O)NC(=O)[C@H](C)N(C)C(=O)[C@H](Cc2ccc(F)cc2)N(C)C(=O)[C@H](Cc2ccc(O)cc2)NC(=O)[C@H](Cc2c[nH]c3ncccc23)NC(=O)[C@@H](c2ccccc2)NC(=O)[C@H](C)N(C)C(=O)[C@H](Cc2c[nH]cn2)NC(=O)[C@H](CCCCN)NC(=O)[C@H](C(C)(C)C)NC(=O)[C@H](Cc2ccc(O)cc2)NC1=O
B5: R4124 (peptide)
peptide: cyclo([PEG2]Y[Tle]KH[NMeA][Phg][Trp(7-aza)]Y[NMePhe(4-F)][Sar])
SMILES: C[C@H]1C(=O)N[C@@H](c2ccccc2)C(=O)N[C@@H](Cc2c[nH]c3ncccc23)C(=O)N[C@@H](Cc2ccc(O)cc2)C(=O)N(C)[C@@H](Cc2ccc(F)cc2)C(=O)N(C)CC(=O)NCCOCCOCCC(=O)N[C@@H](Cc2ccc(O)cc2)C(=O)N[C@@H](C(C)(C)C)C(=O)N[C@@H](CCCCN)C(=O)N[C@@H](Cc2c[nH]cn2)C(=O)N1C

biological target: GMPPNP-loaded H-Ras or GTP-loaded K-Ras; assay: FP competition, displacement of probe R4007 from Ras

Row | IC50 [nM] | Binder
1 | 85 | B1
2 | 77.1 | B2
3 | 65.7 | B3
4 | 73 | B4
5 | 88.4 | B5
